First the molecules themselves.
B1: Azoarcus group I ribozyme (parent)
chain: GUGCCUUGCGCCGGGAAACCACGCAAGGGAUGGUGUCAAAUUCGGCGAAACCUAAGCGCCCGCCCGGGCGUAUGGCAACGCCGAGCCAAGCUUCGGCGCCUGCGCCGAUGAAGGUGUAGAGACUAGACGGCACCCACCUAAGGCAAACGCUAUGGUGAAGGCAUAGUCCAGGGAGUGGCGAAAGUCACACAAACCGG

Variants of B1 are the subject of this series. As to the kind of experiment: reverse-splicing fitness (ratio to wild type); higher = more active; in vitro selection; Mg2+ level not given. In short, it runs like this:
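An in vitro group I ribozyme library with randomized positions was T7-transcribed and gel-purified. In triplicate, 10 pmol RNA in EPPS pH 7.5 was reacted with 50 pmoles of a 30-nt RNA substrate for 1 h at 37 °C across several added MgCl2 levels (1–48 mM), then stopped with EDTA. Products were reverse transcribed from a substrate-complementary primer, PCR-amplified and sequenced (HiSeq 4000). Fitness is a variant's read proportion after selection over that before, normalised to wild type.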
As to GUGCCUUGCGCCGGGAAACCACGCAAGGGAUGGUGUCAAAUUCGGCGAAACCUAAGCGCCCGCCCGGGCGUAUGGCAACGCUGAGCCAAGCUUCGGCGCCUGCGCCGAUGAAGGUGUAGUGACUAGACGGCACCCACCUAAGGCAAACGUUAUGGUGAAGGCAUAGUCCAGGGAGAGGCGAAAGUCACACAAACCGG [C82U A120U C150U U176A], the reverse-splicing fitness is 0.0245. With GUGCCUUGCGCCGGGAAACCACGCAAGGGAUGGUGUCAAAUUCGGCGAAACCUAAGCGCCCGCCCGGGCGUAUGGCAACGCCGAGCCAAGCUUCGGCGCCUGCGCCGAUGAAGGUGUAGUGACUAGACGGCACCCACCUAAGGCGAACGCUAUGGUGAAGGCAUAGUCGAGGGAGCGGCGAAAGUCACACAAACCGG [A120U A145G C169G U176C] the figure was 0.0902. In the case of GUGCCUUGCGCCGGGAAACCACGCAAGGGAUGGUGUCAAAUUCGGCGAAACCUAAGCGCCCGCCCGGGCGUAUGGCAACGCCGAGCCAAGCUUCGGCGCCUGCGCCGAUGUAGGUGUAGUGACUAGACGGCACCCACCUAAGGCAAACGAUAUGGUGAAGGCAUAGUCUAGGGAGUGGCGAAAGUCACACAAACCGG [A111U A120U C150A C169U], the reverse-splicing fitness was determined as 0.00846. Regarding GUGCCUUGCGCCGGGAAACCACGCAAGGGAUGGUGUCAAAUUCGGCGAAACCUAAGCGCCCGCCCGGGCGUAUGGCAACGCGGAGCCAAGCUUCGGCGCCUGCGCCGAUGAAGGUGUAGGGACUAGACGGCACCCACCUAAGGCCAACGGUAUGGUGAAGGCAUAGUCAAGGGAGAGGCGAAAGUCACACAAACCGG [C82G A120G A145C C150G C169A U176A], the reverse-splicing fitness stood at 0.00893. To GUGCCUUGCGCCGGGAAACCACGCAAGGGAUGGUGUCAAAUUCGGCGAAACCUAAGCGCCCGCCCGGGCGUAUGGCAACGCGGAGCCAAGCUUCGGCGCCUGCGCCGAUGCAGGUGUAGGGACUAGACGGCACCCACCUAAGGCGAACGCUAUGGUGAAGGCAUAGUCGAGGGAGUGGCGAAAGUCACACAAACCGG [C82G A111C A120G A145G C169G] belongs 0.0143.

On to GUGCCUUGCGCCGGGAAACCACGCAAGGGAUGGUGUCAAAUUCGGCGAAACCUAAGCGCCCGCCCGGGCGUAUGGCAACGCGGAGCCAAGCUUCGGCGCCUGCGCCGAUGCAGGUGUAGGGACUAGACGGCACCCACCUAAGGCAAACGUUAUGGUGAAGGCAUAGUCCAGGGAGUGGCGAAAGUCACACAAACCGG [C82G A111C A120G C150U], for which the reverse-splicing fitness stood at 0.0121. With GUGCCUUGCGCCGGGAAACCACGCAAGGGAUGGUGUCAAAUUCGGCGAAACCUAAGCGCCCGCCCGGGCGUAUGGCAACGCAGAGCCAAGCUUCGGCGCCUGCGCCGAUGCAGGUGUAGUGACUAGACGGCACCCACCUAAGGCGAACGCUAUGGUGAAGGCAUAGUCCAGGGAGGGGCGAAAGUCACACAAACCGG [C82A A111C A120U A145G U176G] the figure was 0.0035; with GUGCCUUGCGCCGGGAAACCACGCAAGGGAUGGUGUCAAAUUCGGCGAAACCUAAGCGCCCGCCCGGGCGUAUGGCAACGCAGAGCCAAGCUUCGGCGCCUGCGCCGAUGCAGGUGUAGUGACUAGACGGCACCCACCUAAGGCGAACGAUAUGGUGAAGGCAUAGUCGAGGGAGAGGCGAAAGUCACACAAACCGG [C82A A111C A120U A145G C150A C169G U176A], 0.00687; with GUGCCUUGCGCCGGGAAACCACGCAAGGGAUGGUGUCAAAUUCGGCGAAACCUAAGCGCCCGCCCGGGCGUAUGGCAACGCGGAGCCAAGCUUCGGCGCCUGCGCCGAUGGAGGUGUAGCGACUAGACGGCACCCACCUAAGGCGAACGUUAUGGUGAAGGCAUAGUCUAGGGAGGGGCGAAAGUCACACAAACCGG [C82G A111G A120C A145G C150U C169U U176G], 0.00664. With GUGCCUUGCGCCGGGAAACCACGCAAGGGAUGGUGUCAAAUUCGGCGAAACCUAAGCGCCCGCCCGGGCGUAUGGCAACGCGGAGCCAAGCUUCGGCGCCUGCGCCGAUGAAGGUGUAGUGACUAGACGGCACCCACCUAAGGCUAACGUUAUGGUGAAGGCAUAGUCGAGGGAGGGGCGAAAGUCACACAAACCGG [C82G A120U A145U C150U C169G U176G] the figure was 0.00167; with GUGCCUUGCGCCGGGAAACCACGCAAGGGAUGGUGUCAAAUUCGGCGAAACCUAAGCGCCCGCCCGGGCGUAUGGCAACGCGGAGCCAAGCUUCGGCGCCUGCGCCGAUGUAGGUGUAGCGACUAGACGGCACCCACCUAAGGCAAACGCUAUGGUGAAGGCAUAGUCGAGGGAGAGGCGAAAGUCACACAAACCGG [C82G A111U A120C C169G U176A], 0.0203. To GUGCCUUGCGCCGGGAAACCACGCAAGGGAUGGUGUCAAAUUCGGCGAAACCUAAGCGCCCGCCCGGGCGUAUGGCAACGCCGAGCCAAGCUUCGGCGCCUGCGCCGAUGGAGGUGUAGUGACUAGACGGCACCCACCUAAGGCGAACGGUAUGGUGAAGGCAUAGUCUAGGGAGCGGCGAAAGUCACACAAACCGG [A111G A120U A145G C150G C169U U176C] belongs 0.00697. Turning to GUGCCUUGCGCCGGGAAACCACGCAAGGGAUGGUGUCAAAUUCGGCGAAACCUAAGCGCCCGCCCGGGCGUAUGGCAACGCAGAGCCAAGCUUCGGCGCCUGCGCCGAUGCAGGUGUAGCGACUAGACGGCACCCACCUAAGGCUAACGGUAUGGUGAAGGCAUAGUCGAGGGAGCGGCGAAAGUCACACAAACCGG [C82A A111C A120C A145U C150G C169G U176C], the reverse-splicing fitness was 0.00621. With GUGCCUUGCGCCGGGAAACCACGCAAGGGAUGGUGUCAAAUUCGGCGAAACCUAAGCGCCCGCCCGGGCGUAUGGCAACGCAGAGCCAAGCUUCGGCGCCUGCGCCGAUGUAGGUGUAGGGACUAGACGGCACCCACCUAAGGCUAACGUUAUGGUGAAGGCAUAGUCCAGGGAGCGGCGAAAGUCACACAAACCGG [C82A A111U A120G A145U C150U U176C] the figure was 0.0151; with GUGCCUUGCGCCGGGAAACCACGCAAGGGAUGGUGUCAAAUUCGGCGAAACCUAAGCGCCCGCCCGGGCGUAUGGCAACGCGGAGCCAAGCUUCGGCGCCUGCGCCGAUGCAGGUGUAGCGACUAGACGGCACCCACCUAAGGCAAACGAUAUGGUGAAGGCAUAGUCGAGGGAGCGGCGAAAGUCACACAAACCGG [C82G A111C A120C C150A C169G U176C], 0.0225.

(Values after the RNAGym collection of RNA variant scans (doi:10.1093/molbev/msab373).)
